Results on 24 molecules are retold here after patent publication US11834518 (dated 2023).

Like-named read-outs stand apart in the source and are kept apart here. Square brackets hold non-standard residues; d marks the D form. Ends that are not written are not given here. F2Pmp = N[C@@H](Cc1ccc(C(F)(F)P(=O)(O)O)cc1)C(=O)O; pY = N[C@@H](Cc1ccc(OP(=O)(O)O)cc1)C(=O)O; AEEA = NCCOCCOCC(=O)O

The target in test [1] is T1, STEP32 C/S (human, UniProt P54829).
T1 chain: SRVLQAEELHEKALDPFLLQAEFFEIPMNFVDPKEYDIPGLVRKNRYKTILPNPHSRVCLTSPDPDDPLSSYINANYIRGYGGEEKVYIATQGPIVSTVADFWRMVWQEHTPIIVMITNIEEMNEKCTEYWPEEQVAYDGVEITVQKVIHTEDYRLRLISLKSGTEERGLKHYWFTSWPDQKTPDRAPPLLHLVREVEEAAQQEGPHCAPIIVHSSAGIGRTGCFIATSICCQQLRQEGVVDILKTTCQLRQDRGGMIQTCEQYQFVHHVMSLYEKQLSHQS
Briefly: FP competition.

For test [2], the target named is T1, STEP32 C/S. Briefly: FP competition.
The target in test [3] is T1, STEP32 C/S. Kind of test: FP competition.
Test [4] addresses T1, STEP32 C/S. Kind of test: FP competition.
In test [5] the target is T1, STEP32 C/S. Kind of test: SPR 25C.
Test [6] concerns the target T1, STEP32 C/S. Kind of test: SPR 25C.
The target of test [7] is T1, STEP32 C/S. Briefly: SPR 25C.
The target of test [8] is T1, STEP32 C/S. Kind of test: SPR 25C.
Test [9] has as its target T2, STEP32 WT (human, UniProt P54829).
T2 chain: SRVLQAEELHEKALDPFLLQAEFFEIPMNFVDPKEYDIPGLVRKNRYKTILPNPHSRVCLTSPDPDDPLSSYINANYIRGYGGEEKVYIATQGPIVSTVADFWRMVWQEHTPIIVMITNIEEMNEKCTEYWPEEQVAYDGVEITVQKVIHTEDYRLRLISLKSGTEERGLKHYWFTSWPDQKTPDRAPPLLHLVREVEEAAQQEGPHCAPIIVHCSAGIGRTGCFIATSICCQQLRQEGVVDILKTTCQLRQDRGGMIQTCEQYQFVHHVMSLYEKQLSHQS
Kind of test: SPR 25C.

Test [10] has as its target T2, STEP32 WT. Briefly: SPR 25C.

B1: p-fin 2 (peptide)
chain: DGYNV[pY]
Consider B1, for which the affinity in [1], expressed as Ki, was 1850 nM. Further, the IC50 in test [2] was found to be 7150 nM.

B2: p3YAla4 (peptide)
chain: ATYAEGYNV[pY]G
With B2, the affinity in [3] corresponds to a Ki of 2530 nM. In other words, the single-digit micromolar range.

B3: p-fin 1 (peptide)
chain: GYNV[pY]
For B3, in test [1], the Ki was 1900 nM. Moreover, the IC50 in test [2] is 8010 nM.

B4: p-fin 5 (peptide)
chain: EGYNV[pY]GD
B4 had a Ki in test [1] of 760 nM. Moreover, the IC50 in test [2] stood at 3360 nM.

B5: p3Ysh-2 (peptide)
chain: [AEEA]YNV[pY]G
In the case of B5, the Ki in [4] turned out to be 13100 nM. Further, the Kd in test [5] and in [6] was 3960 nM throughout.

B6: p3YAla9 (peptide)
chain: ATYKEGYNA[pY]G
In turn, B6 had a Ki in test [3] of 5940 nM. That is a single-digit micromolar value.

B7: p-fin 4 (peptide)
chain: EGYNV[pY]E
B7: the Ki in test [1] was 360 nM. This molecule yielded an IC50 in test [2] of 1860 nM. Also, the figures for the Kd in test [5] and in [7] were 88.4 nM and 90 nM, respectively.

B8: p3YAla8 (peptide)
chain: ATYKEGYAV[pY]G
As for B8, the affinity in test [3] corresponds to a Ki of 2470 nM.

B9: p3YAla7 (peptide)
chain: ATYKEGANV[pY]G
The molecule B9 had a Ki in test [3] of 4450 nM. This Ki lies about 1.8-fold higher than the previous one.

B10: p3YAla2 (peptide)
chain: AAYKEGYNV[pY]G
In test [3], B10 yielded a Ki of 1620 nM.

B11: p3Ysh-4 (peptide)
chain: [AEEA]NS[pY]G
Molecule B11 came in with a Ki in [4] of 13700 nM. For the same molecule, the binding result in test [8] was “no binding”.

B12: p-fin 3 (peptide)
chain: NGYNV[pY]
Molecule B12 came in with a Ki in [1] of 2160 nM. In test [2], this molecule registered an IC50 of 8840 nM.

B13: p3Y (peptide)
chain: ATYKEGYNV[pY]G
Consider B13, for which the Ki was 2820 nM in test [3] and 2360 nM in [4]. Besides, the figures for the Kd in [5] and in test [6] were 232 nM and 240 nM, respectively.

B14: p3Ysh-5 (peptide)
chain: [AEEA]YV[pY]G
Take B14: in [4], the Ki amounted to 5340 nM.

B15: p3YAla3 (peptide)
chain: ATAKEGYNV[pY]G
For the molecule B15, the Ki in [3] was determined as 4810 nM.

B16: p3Ysh-7 (peptide)
chain: [AEEA]FS[pY]G
For the molecule B16, the Ki in test [4] stood at 4570 nM. Besides, the binding result in test [8] is “no binding”.

B17: p3Ysh-6 (peptide)
chain: [AEEA]FGYNV[pY]G
For the molecule B17, the affinity in test [4], expressed as Ki, was 6960 nM. Further, the Kd in test [5] and in test [6] was 6130 nM in each case.

B18: p3YAla10 (peptide)
chain: ATYKEGYNV[pY]A
For the molecule B18, in [3], the Ki stood at 2710 nM.

B19: p3YAla6 (peptide)
chain: ATYKEAYNV[pY]G
Regarding B19, the Ki in test [3] came out at 2310 nM.

B20: 3Ysh-3-F2Pmp (peptide)
chain: EGYNV[F2Pmp]
For B20, the Kd is 240 nM in [9] and 242 nM in [10].

B21: p3Ysh-3 (peptide)
chain: [AEEA]EGYNV[pY]
B21: the Ki was determined as 690 nM in [1] and 1640 nM in test [4]. In [2], the IC50 was found to be 2600 nM. The Kd in test [5] turned out to be 53.1 nM; in [6], 60 nM.

B22: p3YAla5 (peptide)
chain: ATYKAGYNV[pY]G
In [3], B22 registered a Ki of 4140 nM.

B23: p3Ysh-1 (peptide)
chain: [AEEA]NV[pY]G
B23 registered a Ki in test [4] of 4990 nM. In addition, the Kd in test [5] and in test [6] was 26000 nM throughout.

B24: 3Y-F2Pmp (peptide)
chain: ATYKEGYNV[F2Pmp]G
Regarding B24, the Kd in test [9] came out at 270 nM; in [10], 268 nM.
